To fix the notation:
B1: FLAG-tagged WT PEAK3, Q6ZS72 S69A (protein)
chain: MSSPEPPTEPPEPDNPTWSTQPTYSNLGQIRAHLLPSKACRLRTPGSLSTNPEPLPPPLPKKILTRTQALPTRRTLHPSSIQVQPPRRPFLGSHSVDKSQAAVGPACLPAELTFGPADAPLGLSLRDLHSPEAVHTALAARQLQGLRTIYARLRARLMGGHPGPCHPGHSFRLLDSSPCAESGDALYYRVVRAHEDAWHILVAKVPKPGADVPHPWGLELQASLSPHFNLQGLCGLVPEGTLPGAPWRGAVALAAEVPERTVAQWLAEACTQPPEEFVWAVALLLLQLSAALKFLEAWGAALVELRPENLLLVAPRGCATTGPPRLLLTDFGRVCLQPPGPPGSPGPHAPQLGSLLRALLSLAAPSTTPLAAGLELLAAQLTRLRPSASRTRGALQALLWGPGPELRGRGAPLGPWLRALGPWLRVRRGLLVLRLAERAAGGEAPSLEDWLCCEYLAEATESSMGQALALLWD
B2: FLAG-tagged WT PEAK3, Q6ZS72 W298A (protein)
chain: B1 chain with A69S, W298A
B3: FLAG-tagged WT PEAK3, Q6ZS72 S225A (protein)
chain: B1 chain with A69S, S225A
B4: FLAG-tagged full-length human PEAK3 (PEAK3-1xFLAG) (natural protein, UniProt Q6ZS72 1-473, looked up)
chain: B1 chain with A69S
modifications: phosphoserine at 69
notes: PEAK3 pseudokinase (C19orf35), human, gene synthesized by GenScript; residues modelled: chain A 128-406, 419-473; chain B 130-406, 415-472; N-terminal peptides chain E 66-73 and chain P 66-72; Purifies as a homodimer, alone or in complex with an endogenous 14-3-3 heterodimer; also called C19orf35; PEAK3 homodimer; source: Expi293F, transfected, purified (G1 Flag resin, FLAG peptide elution, …)
B5: FLAG-tagged WT PEAK3, Q6ZS72 K293A; W298A (protein)
chain: B1 chain with A69S, K293A, W298A
B6: FLAG-tagged WT PEAK3, Q6ZS72 K293A (protein)
chain: B1 chain with A69S, K293A
B7: 14-3-3β (natural protein, human (endogenous in Expi293F), UniProt P31946 1-246, looked up)
chain: MTMDKSELVQKAKLAEQAERYDDMAAAMKAVTEQGHELSNEERNLLSVAYKNVVGARRSSWRVISSIEQKTERNEKKQQMGKEYREKIEAELQDICNDVLELLDKYLIPNATQPESKVFYLKMKGDYFRYLSEVASGDNKQTTVSNSQQAYQEAFEISKKEMQPTHPIRLGLALNFSVFYYEILNSPEKACSLAKTAFDEAIAELDTLNEESYKDSTLIMQLLRDNLTLWTSENQGDEGDAGEGEN
notes: 14-3-3 protein beta, human; residues 3-232 modelled in the cryo-EM structure; also called 14-3-3 beta; β isoform; source: endogenous, Expi293F, co-purified with PEAK3-1xFLAG

Data set [1] deals with FLAG-tagged PEAK3 R147A (human) (UniProt Q6ZS72). Nature of the data set: co-IP; FLAG-tagged PEAK3 variants transiently expressed in HEK293; anti-FLAG/protein A beads overnight at 4 °C; endogenous 14-3-3 detected with anti-pan 14-3-3 by Western blot; also after 1 h of 0.1% DMSO or PKD inhibitors CRT0066101 or CID755673 (dose-dependent decrease, not abolished). Background: Immunoblotting shows a protein as a band on a membrane.

Data set [2] addresses T1, endogenous 14-3-3, P62258.
T1 chain: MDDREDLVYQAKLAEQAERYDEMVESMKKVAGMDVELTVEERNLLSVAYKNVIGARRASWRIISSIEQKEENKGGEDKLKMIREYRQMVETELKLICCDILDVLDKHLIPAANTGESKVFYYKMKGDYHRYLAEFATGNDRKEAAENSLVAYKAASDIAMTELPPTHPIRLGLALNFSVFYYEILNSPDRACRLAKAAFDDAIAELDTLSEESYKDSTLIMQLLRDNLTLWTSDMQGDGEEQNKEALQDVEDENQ
Nature of the data set: co-immunoprecipitation, quantified Western blot. The conditions noted are these: chain shown with the change; transiently expressed in HEK293 cells; 3 independent experiments; parent: est. 100; read off a plot.

Data set [3] concerns the molecule itself. Nature of the data set: cryo-EM structure; PEAK3/14-3-3 complex co-purified from Expi293F (FLAG affinity, SEC), 7 uM, 0.1% n-Octyl-β-D-glucoside; 169,563 particles, C1, 3.1 Å.
The target of data set [4] is B4. Described as above. The conditions noted are these: both partners purified.

Substitutions are numbered along the chain they refer to. Names may count otherwise.

For the molecule “endogenous 14-3-3 (from UniProt P62258 1-255) (FLAG-tagged variant transiently expressed in HEK293)”, the reduction in 14-3-3 association relative to WT PEAK3 in data set [1] came out at 75%.
In the case of B1, in data set [2], the percent of parent came to 0.
Same read-out and setting: as for B2, the figure is 57.
For B3, in data set [2], the percent of parent amounted to 82.
With B4, in data set [3], the “stoichiometry N” value turned out to be 2.
With B5, in data set [2], the percent of parent was 43.
Same read-out and setting: as for B6, the figure is 62.
In the case of B7, the binding result in data set [4] is given as “binds”.

Usually stoichiometry N stands for the number of molecules, sites or subunits per partner or assembly.
